One assay concerns the target T1, purified OmpK36 (Klebsiella pneumoniae, UniProt Q48473).
T1 construct: made in house; host or cells: E. coli BL21 (DE3), pET28b (BamHI/XhoI cloning)
In words: Western blot of purified OmpK36 with recombinant Fabs. The class given is binding. The settings on record: 400 ng OmpK36His per lane; Fabs at 10 μg/L; blocking PBS/BSA10%. How it is done:
400 ng of purified OmpK36His was loaded on polyacrylamide gel (all lanes) and SDS-PAGE was performed. Proteins were blotted on PVDF membrane for 2 h at 350 mA. After blocking with PBS/BSA10% the membrane was cut to single lanes and each lane was incubated for 1 h with Fabs at 10 μg/L. After three washes membrane was incubated with anti-Human Light Chain K antibody (Sigma).

For assay [1], the target named is T2, recombinant transgelin (rTAGLN) (Homo sapiens, UniProt Q01995).
T2 construct: purchased Origene TP302448
T2 sequence (Q01995 whole entry): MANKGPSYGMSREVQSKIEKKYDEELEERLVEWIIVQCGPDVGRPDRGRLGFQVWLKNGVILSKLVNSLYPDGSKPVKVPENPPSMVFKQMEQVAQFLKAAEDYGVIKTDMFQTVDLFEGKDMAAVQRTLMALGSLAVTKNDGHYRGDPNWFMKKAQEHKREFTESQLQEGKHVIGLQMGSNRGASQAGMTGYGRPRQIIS
The assay is classed as binding. Conditions: 4-500 ng rTAGLN per well.

For the next assay, the system named is carotid plaque. The assay is described as follows: Immunohistology (immunofluorescence) on carotid plaque sections. The class given is binding, human. The settings on record: 7816Fab-FLAG detected with anti-FLAG clone M2 and anti-Mouse IgG AlexaFluor488. On the procedure: Carotid plaques harvested during TEA surgery, just after excision were fixed in 4% paraformaldehyde in PBS, cut in consecutive 2 mm thick rings, decalcified in EDTA solution when required, cryoprotected in 10% sucrose in PBS, embedded in OCT compound, then snap frozen in isopentane/liquid nitrogen and stored at −80° C. Cryosections ([…]) were cut from every ring and stained with either Hematoxylin/Eosin or Movat's pentachrome, thus the morphology was examined in at least 4 sections/ring using an Eclipse 55i microscope equipped with DS-L1 camera and LUCIA 4.82 software (all from Nikon, Tokyo, J). Multiple images collected from each ring, were composed by LUCIA 4.82 software, to obtain a whole section picture. The presence of thin cap, foam cells, fibrolipids, ulcerations, necrotic/thrombotic core, calcifications, hemorrhage/thrombosis and inflammatory infiltrate were used to classify carotid plaques as stable, vulnerable, or unstable, following Virmani's modified AHA classification. Additional sections (10 μm thick) from rings with and without atheroma were selected and submitted for immunolabeling with anti CD138 antibody or with 7816Fab-FLAG detected with anti-FLAG clone M2 followed by rabbit-anti-Mouse IgG AlexaFluor488. DAPI stained the nuclei. […] The nuclear fluorescence was due to DAPI staining.

B1: Fab7816: human recombinant Fab from coronary plaque library ID11LIB; heavy chain SEQ ID NO:2, light chain SEQ ID NO:4 (antibody, listed as Homo sapiens, V domains shown)
VH: LESGPGQVKPSQTLSLTCTVSGGSIGSGSYSWNWIRQPAGRGLEWIGRISDSGNTNFNPSLKSRVTMSVDTSKNQFALKLTSVTAADTATYFCARGRGILTGLFDYWGQGSLVSVSSASTKGPSVFPLAPSSKSTSGGTAALGCLVKD
VL: SPDSLAVSPGGRATIKCASSQSVLDNSNHKNSLAWYQQKPGLPPKLLIYWASTRYSGVPDRFSGSGSGTDFTLTINNLQAADVAVYFCQQYYSTPWTFGQGTKVE
Regarding B1, in the assay with purified OmpK36, the “reactivity with purified OmpK36 in western-blot” value was “react with purified OmpK36”. Further, the “binding to human transgelin in Western blot” value in assay [1] is on record as “recognize human transgelin”. Also, the “immunofluorescence staining of carotid plaque sections” value in the assay on carotid plaque was “specific immonostaining, mainly cytoplasmic”.

These data come from patent US20120165211A1, “Human Antibodies Cross-Reacting With A Bacterial And A Self Antigen From Atherosclerotic Plaques” (priority 2007, published 2012).
